# Results taken from PMC10938628 (Science Advances, 2022).
# B1: CarHCC (Phe161-Leu276 of the photoreceptor CarH; C-terminal Rossmann-fold B12-binding segment of split CarHC) (domain or fragment, UniProt Q53W62 161-276, looked up)
# chain: FPPGPPVLVTTPPGERHEIGAMLAAYHLRRKGVPALYLGPDTPLPDLRALARRLGAGTVVLSAVLSEPLRALPDGALKDLAPRVFLGGQGAGPEEARRLGAEYMEDLKGLAEALWL
# B2: reconstituted split CarHC complex (CarHCN + CarHCC held together by a cobalamin) (complex)
# chain 1: PEDLGTGLLEALLRGDLAGAEALFRRGLRFWGPEGVLEHLLLPVLREVGEAWHRGEIGVAEEHLASTFLRARLQELLDLAGFPPGPP
# chain 2: B1 chain
# Legend:
# [1] = biological target: intact CarHC (C-terminal domain of the photoreceptor CarH); test: SEC
# [2] = biological target: the molecule itself; test: SEC + other: dynamic light scattering
# SEC = biological target: the molecule itself; test: SEC
molecule,measurement,setting,value
intact CarHC (C-terminal domain of the photoreceptor CarH) (domain or fragment),stoichiometry N,[1],4
B1,stoichiometry N,[2],4
B2,stoichiometry N,SEC,4
